Square brackets hold non-standard residues; d marks the D form. Aib = CC(C)(N)C(=O)O
T1: human GLP-2 receptor (hGLP2-R) (human, UniProt O95838)
T1 sequence: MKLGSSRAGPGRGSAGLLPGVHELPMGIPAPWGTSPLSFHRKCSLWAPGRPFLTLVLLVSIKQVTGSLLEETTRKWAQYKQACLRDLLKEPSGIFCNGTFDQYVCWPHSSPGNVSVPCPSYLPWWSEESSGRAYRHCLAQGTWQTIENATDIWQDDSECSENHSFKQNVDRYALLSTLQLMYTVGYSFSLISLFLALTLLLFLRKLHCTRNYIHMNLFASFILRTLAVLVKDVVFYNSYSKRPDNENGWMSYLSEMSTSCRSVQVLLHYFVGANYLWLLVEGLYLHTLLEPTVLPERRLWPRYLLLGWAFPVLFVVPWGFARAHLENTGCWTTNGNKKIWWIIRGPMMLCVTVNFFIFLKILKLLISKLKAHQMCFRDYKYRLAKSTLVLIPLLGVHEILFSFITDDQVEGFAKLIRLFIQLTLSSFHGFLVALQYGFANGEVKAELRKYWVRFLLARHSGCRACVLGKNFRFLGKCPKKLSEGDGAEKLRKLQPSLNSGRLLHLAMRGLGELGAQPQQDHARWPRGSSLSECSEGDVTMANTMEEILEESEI

B1: Compound 13 (peptide)
peptide: H-H[Aib]EGTFTSELATILDEQAARDFIAWLQAHKITD-OH
SMILES: CC[C@H](C)[C@H](NC(=O)[C@H](Cc1ccccc1)NC(=O)[C@H](CC(=O)O)NC(=O)[C@H](CCCNC(=N)N)NC(=O)[C@H](C)NC(=O)[C@H](C)NC(=O)[C@H](CCC(N)=O)NC(=O)[C@H](CCC(=O)O)NC(=O)[C@H](CC(=O)O)NC(=O)[C@H](CC(C)C)NC(=O)[C@@H](NC(=O)[C@@H](NC(=O)[C@H](C)NC(=O)[C@H](CC(C)C)NC(=O)[C@H](CCC(=O)O)NC(=O)[C@H](CO)NC(=O)[C@@H](NC(=O)[C@H](Cc1ccccc1)NC(=O)[C@@H](NC(=O)CNC(=O)[C@H](CCC(=O)O)NC(=O)C(C)(C)NC(=O)[C@@H](N)Cc1c[nH]cn1)[C@@H](C)O)[C@@H](C)O)[C@@H](C)O)[C@@H](C)CC)C(=O)N[C@@H](C)C(=O)N[C@@H](Cc1c[nH]c2ccccc12)C(=O)N[C@@H](CC(C)C)C(=O)N[C@@H](CCC(N)=O)C(=O)N[C@@H](C)C(=O)N[C@@H](Cc1c[nH]cn1)C(=O)N[C@@H](CCCCN)C(=O)N[C@H](C(=O)N[C@H](C(=O)N[C@@H](CC(=O)O)C(=O)O)[C@@H](C)O)[C@@H](C)CC
B2: Compound 14 (peptide)
peptide: H-H[Aib]EGTFTSELATILDEQAARDFIAWLYAHKITD-OH
SMILES: CC[C@H](C)[C@H](NC(=O)[C@H](Cc1ccccc1)NC(=O)[C@H](CC(=O)O)NC(=O)[C@H](CCCNC(=N)N)NC(=O)[C@H](C)NC(=O)[C@H](C)NC(=O)[C@H](CCC(N)=O)NC(=O)[C@H](CCC(=O)O)NC(=O)[C@H](CC(=O)O)NC(=O)[C@H](CC(C)C)NC(=O)[C@@H](NC(=O)[C@@H](NC(=O)[C@H](C)NC(=O)[C@H](CC(C)C)NC(=O)[C@H](CCC(=O)O)NC(=O)[C@H](CO)NC(=O)[C@@H](NC(=O)[C@H](Cc1ccccc1)NC(=O)[C@@H](NC(=O)CNC(=O)[C@H](CCC(=O)O)NC(=O)C(C)(C)NC(=O)[C@@H](N)Cc1c[nH]cn1)[C@@H](C)O)[C@@H](C)O)[C@@H](C)O)[C@@H](C)CC)C(=O)N[C@@H](C)C(=O)N[C@@H](Cc1c[nH]c2ccccc12)C(=O)N[C@@H](CC(C)C)C(=O)N[C@@H](Cc1ccc(O)cc1)C(=O)N[C@@H](C)C(=O)N[C@@H](Cc1c[nH]cn1)C(=O)N[C@@H](CCCCN)C(=O)N[C@H](C(=O)N[C@H](C(=O)N[C@@H](CC(=O)O)C(=O)O)[C@@H](C)O)[C@@H](C)CC
B3: Compound 10 (peptide)
peptide: H-H[Aib]EGTFTSELSTILDEQAARDFIAWLIAHKITD-OH
SMILES: CC[C@H](C)[C@H](NC(=O)[C@H](CC(C)C)NC(=O)[C@H](Cc1c[nH]c2ccccc12)NC(=O)[C@H](C)NC(=O)[C@@H](NC(=O)[C@H](Cc1ccccc1)NC(=O)[C@H](CC(=O)O)NC(=O)[C@H](CCCNC(=N)N)NC(=O)[C@H](C)NC(=O)[C@H](C)NC(=O)[C@H](CCC(N)=O)NC(=O)[C@H](CCC(=O)O)NC(=O)[C@H](CC(=O)O)NC(=O)[C@H](CC(C)C)NC(=O)[C@@H](NC(=O)[C@@H](NC(=O)[C@H](CO)NC(=O)[C@H](CC(C)C)NC(=O)[C@H](CCC(=O)O)NC(=O)[C@H](CO)NC(=O)[C@@H](NC(=O)[C@H](Cc1ccccc1)NC(=O)[C@@H](NC(=O)CNC(=O)[C@H](CCC(=O)O)NC(=O)C(C)(C)NC(=O)[C@@H](N)Cc1c[nH]cn1)[C@@H](C)O)[C@@H](C)O)[C@@H](C)O)[C@@H](C)CC)[C@@H](C)CC)C(=O)N[C@@H](C)C(=O)N[C@@H](Cc1c[nH]cn1)C(=O)N[C@@H](CCCCN)C(=O)N[C@H](C(=O)N[C@H](C(=O)N[C@@H](CC(=O)O)C(=O)O)[C@@H](C)O)[C@@H](C)CC
B4: Compound 12 (peptide)
peptide: H-H[Aib]EGTFTSELATILDEQAARDFIAWLHAHKITD-OH
SMILES: CC[C@H](C)[C@H](NC(=O)[C@H](Cc1ccccc1)NC(=O)[C@H](CC(=O)O)NC(=O)[C@H](CCCNC(=N)N)NC(=O)[C@H](C)NC(=O)[C@H](C)NC(=O)[C@H](CCC(N)=O)NC(=O)[C@H](CCC(=O)O)NC(=O)[C@H](CC(=O)O)NC(=O)[C@H](CC(C)C)NC(=O)[C@@H](NC(=O)[C@@H](NC(=O)[C@H](C)NC(=O)[C@H](CC(C)C)NC(=O)[C@H](CCC(=O)O)NC(=O)[C@H](CO)NC(=O)[C@@H](NC(=O)[C@H](Cc1ccccc1)NC(=O)[C@@H](NC(=O)CNC(=O)[C@H](CCC(=O)O)NC(=O)C(C)(C)NC(=O)[C@@H](N)Cc1c[nH]cn1)[C@@H](C)O)[C@@H](C)O)[C@@H](C)O)[C@@H](C)CC)C(=O)N[C@@H](C)C(=O)N[C@@H](Cc1c[nH]c2ccccc12)C(=O)N[C@@H](CC(C)C)C(=O)N[C@@H](Cc1c[nH]cn1)C(=O)N[C@@H](C)C(=O)N[C@@H](Cc1c[nH]cn1)C(=O)N[C@@H](CCCCN)C(=O)N[C@H](C(=O)N[C@H](C(=O)N[C@@H](CC(=O)O)C(=O)O)[C@@H](C)O)[C@@H](C)CC
B5: Compound 15 (peptide)
peptide: H-H[Aib]EGTFTSELATILDEQAARDFIAWLIQHKITD-OH
SMILES: CC[C@H](C)[C@H](NC(=O)[C@H](Cc1ccccc1)NC(=O)[C@H](CC(=O)O)NC(=O)[C@H](CCCNC(=N)N)NC(=O)[C@H](C)NC(=O)[C@H](C)NC(=O)[C@H](CCC(N)=O)NC(=O)[C@H](CCC(=O)O)NC(=O)[C@H](CC(=O)O)NC(=O)[C@H](CC(C)C)NC(=O)[C@@H](NC(=O)[C@@H](NC(=O)[C@H](C)NC(=O)[C@H](CC(C)C)NC(=O)[C@H](CCC(=O)O)NC(=O)[C@H](CO)NC(=O)[C@@H](NC(=O)[C@H](Cc1ccccc1)NC(=O)[C@@H](NC(=O)CNC(=O)[C@H](CCC(=O)O)NC(=O)C(C)(C)NC(=O)[C@@H](N)Cc1c[nH]cn1)[C@@H](C)O)[C@@H](C)O)[C@@H](C)O)[C@@H](C)CC)C(=O)N[C@@H](C)C(=O)N[C@@H](Cc1c[nH]c2ccccc12)C(=O)N[C@@H](CC(C)C)C(=O)N[C@H](C(=O)N[C@@H](CCC(N)=O)C(=O)N[C@@H](Cc1c[nH]cn1)C(=O)N[C@@H](CCCCN)C(=O)N[C@H](C(=O)N[C@H](C(=O)N[C@@H](CC(=O)O)C(=O)O)[C@@H](C)O)[C@@H](C)CC)[C@@H](C)CC
B6: Compound 11 (peptide)
peptide: H-H[Aib]EGTFTSELATILDGKAARDFIAWLIAHKITD-OH
SMILES: CC[C@H](C)[C@H](NC(=O)[C@H](CC(C)C)NC(=O)[C@H](Cc1c[nH]c2ccccc12)NC(=O)[C@H](C)NC(=O)[C@@H](NC(=O)[C@H](Cc1ccccc1)NC(=O)[C@H](CC(=O)O)NC(=O)[C@H](CCCNC(=N)N)NC(=O)[C@H](C)NC(=O)[C@H](C)NC(=O)[C@H](CCCCN)NC(=O)CNC(=O)[C@H](CC(=O)O)NC(=O)[C@H](CC(C)C)NC(=O)[C@@H](NC(=O)[C@@H](NC(=O)[C@H](C)NC(=O)[C@H](CC(C)C)NC(=O)[C@H](CCC(=O)O)NC(=O)[C@H](CO)NC(=O)[C@@H](NC(=O)[C@H](Cc1ccccc1)NC(=O)[C@@H](NC(=O)CNC(=O)[C@H](CCC(=O)O)NC(=O)C(C)(C)NC(=O)[C@@H](N)Cc1c[nH]cn1)[C@@H](C)O)[C@@H](C)O)[C@@H](C)O)[C@@H](C)CC)[C@@H](C)CC)C(=O)N[C@@H](C)C(=O)N[C@@H](Cc1c[nH]cn1)C(=O)N[C@@H](CCCCN)C(=O)N[C@H](C(=O)N[C@H](C(=O)N[C@@H](CC(=O)O)C(=O)O)[C@@H](C)O)[C@@H](C)CC

The binders below were run against T1, human GLP-2 receptor (hGLP2-R) (assay: cell-based or functional assay).

| EC50 GLP-2 (nM); cAMP AlphaScreen [nM] | Binder |
| --- | --- |
| 0.083 | B1 |
| 0.049 | B2 |
| 0.05 | B3 |
| 0.076 | B4 |
| 0.038 | B5 |
| 0.085 | B6 |

The binders below were run against human glucagon-like peptide 1 receptor (GLP-1R) (human, UniProt P43220) (assay: cell-based or functional assay).

| EC50 GLP-1 (nM); cAMP AlphaScreen [nM] | Binder |
| --- | --- |
| 0.016 | B1 |
| 0.021 | B2 |
| 0.005 | B3 |
| 0.055 | B4 |
| 0.005 | B5 |
| 0.011 | B6 |

Reference: US11130793B2, “GLP-1/GLP-2 dual agonists” (Zealand Pharma A/S, priority 2016, dated 2021)
